# Legend:
# Assay in all cases: cell-based or functional assay
# ASK1 (h) (human) = ASK1 (h) (human) (UniProt Q99683)
# DCAMKL2 (h) (human) = target: T1, DCAMKL2 (h) (human) (UniProt Q8N568)
# T1 sequence (looked up): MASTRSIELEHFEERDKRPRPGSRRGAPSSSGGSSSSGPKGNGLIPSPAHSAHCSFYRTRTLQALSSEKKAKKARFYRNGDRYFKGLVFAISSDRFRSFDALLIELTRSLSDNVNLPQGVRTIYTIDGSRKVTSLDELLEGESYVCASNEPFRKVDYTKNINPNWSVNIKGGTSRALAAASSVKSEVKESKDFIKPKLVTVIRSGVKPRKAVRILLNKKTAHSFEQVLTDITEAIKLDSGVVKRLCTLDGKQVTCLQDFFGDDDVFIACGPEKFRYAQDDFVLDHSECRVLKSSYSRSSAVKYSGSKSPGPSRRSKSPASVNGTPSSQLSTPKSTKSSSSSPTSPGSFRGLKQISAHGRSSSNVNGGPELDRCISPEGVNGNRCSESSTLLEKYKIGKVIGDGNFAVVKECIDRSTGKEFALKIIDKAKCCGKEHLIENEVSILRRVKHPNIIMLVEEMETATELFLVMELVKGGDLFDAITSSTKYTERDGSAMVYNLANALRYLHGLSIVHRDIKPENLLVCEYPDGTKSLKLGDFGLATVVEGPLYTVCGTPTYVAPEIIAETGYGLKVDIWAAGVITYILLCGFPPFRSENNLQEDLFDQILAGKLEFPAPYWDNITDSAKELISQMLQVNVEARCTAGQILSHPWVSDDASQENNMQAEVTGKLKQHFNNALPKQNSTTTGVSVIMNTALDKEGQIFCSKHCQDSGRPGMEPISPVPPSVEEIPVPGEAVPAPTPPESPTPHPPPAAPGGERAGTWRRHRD
# DMPK (h) (human) = DMPK (h) (human) (UniProt Q09013)
# EGFR(T790M) (h) (human) = EGFR(T790M) (h) (human) (UniProt P00533)
# EphA5 (h) (human) = target: T2, EphA5 (h) (human) (UniProt P54756)
# T2 sequence (looked up): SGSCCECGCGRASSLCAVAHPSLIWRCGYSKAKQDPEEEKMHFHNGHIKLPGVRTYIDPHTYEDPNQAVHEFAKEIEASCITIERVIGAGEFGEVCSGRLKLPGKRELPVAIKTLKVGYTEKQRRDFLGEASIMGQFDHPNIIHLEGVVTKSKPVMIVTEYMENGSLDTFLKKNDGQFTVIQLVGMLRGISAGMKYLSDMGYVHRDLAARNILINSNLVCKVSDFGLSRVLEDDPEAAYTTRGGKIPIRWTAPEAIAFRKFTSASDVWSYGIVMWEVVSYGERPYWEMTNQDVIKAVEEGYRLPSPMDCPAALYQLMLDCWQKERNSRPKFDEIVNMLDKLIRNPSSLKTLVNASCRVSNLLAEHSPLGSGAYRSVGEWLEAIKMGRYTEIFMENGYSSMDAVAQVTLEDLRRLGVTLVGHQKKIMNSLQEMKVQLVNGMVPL
# Hck (h) (human) = Hck (h) (human) (UniProt P08631)
# IRAK1 (h) (human) = IRAK1 (h) (human) (UniProt P51617)
# LOK (h) (human) = LOK (h) (human) (UniProt O94804)
# [1] = target: Mitogen-Activated Protein Kinase-Activated Protein Kinase 2 (human) (UniProt P49137)
# PAK5 (h) (human) = PAK5 (h) (human) (UniProt Q9P286)
# PDGFRα (h) (human) = PDGFRα (h) (human) (UniProt P16234)
# PKCγ (h) (human) = PKCγ (h) (human) (UniProt P05129)
# PKCθ (h) (human) = PKCθ (h) (human) (UniProt Q04759)
# PKG1α (h) (human) = PKG1α (h) (human) (UniProt Q13976)
# SAPK3 (h) (human) = target: T3, SAPK3 (h) (human) (UniProt P53778)
# T3 sequence (looked up): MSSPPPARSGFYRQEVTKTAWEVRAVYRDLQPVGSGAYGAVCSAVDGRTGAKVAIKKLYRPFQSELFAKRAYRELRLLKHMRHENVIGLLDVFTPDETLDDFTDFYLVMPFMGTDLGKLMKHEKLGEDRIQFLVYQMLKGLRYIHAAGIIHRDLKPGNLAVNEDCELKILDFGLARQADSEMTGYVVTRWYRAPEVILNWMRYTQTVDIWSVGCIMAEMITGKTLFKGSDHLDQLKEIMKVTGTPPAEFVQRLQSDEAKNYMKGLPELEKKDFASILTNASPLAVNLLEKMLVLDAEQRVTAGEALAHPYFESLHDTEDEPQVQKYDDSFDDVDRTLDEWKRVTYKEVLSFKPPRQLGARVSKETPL
# STK33 (h) (human) = STK33 (h) (human) (UniProt Q9BYT3)
# TrkA (h) (human) = TrkA (h) (human) (UniProt P04629)
# ULK2 (h) (human) = target: T4, ULK2 (h) (human) (UniProt Q8IYT8)
# T4 sequence (looked up): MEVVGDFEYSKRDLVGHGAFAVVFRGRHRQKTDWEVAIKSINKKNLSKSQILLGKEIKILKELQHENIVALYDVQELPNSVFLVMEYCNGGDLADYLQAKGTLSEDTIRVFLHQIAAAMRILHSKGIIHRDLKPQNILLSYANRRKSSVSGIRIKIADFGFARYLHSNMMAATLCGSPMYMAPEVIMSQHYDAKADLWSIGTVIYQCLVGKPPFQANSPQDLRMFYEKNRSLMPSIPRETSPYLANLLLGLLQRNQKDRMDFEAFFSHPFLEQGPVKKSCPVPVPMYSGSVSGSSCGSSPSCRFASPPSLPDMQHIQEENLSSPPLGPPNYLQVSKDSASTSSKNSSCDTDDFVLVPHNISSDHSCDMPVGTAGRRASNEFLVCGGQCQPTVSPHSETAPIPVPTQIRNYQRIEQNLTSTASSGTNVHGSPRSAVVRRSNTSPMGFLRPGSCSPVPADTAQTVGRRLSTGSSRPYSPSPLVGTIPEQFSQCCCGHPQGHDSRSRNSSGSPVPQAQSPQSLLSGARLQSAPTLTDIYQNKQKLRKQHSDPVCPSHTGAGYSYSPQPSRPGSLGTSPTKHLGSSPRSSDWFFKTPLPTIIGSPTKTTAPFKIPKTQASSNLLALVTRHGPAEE
# cSRC (h) (human) = cSRC (h) (human) (UniProt P12931)
# Chain of PDGFRα (h) (human) (P16234 550-1089 limits assumed): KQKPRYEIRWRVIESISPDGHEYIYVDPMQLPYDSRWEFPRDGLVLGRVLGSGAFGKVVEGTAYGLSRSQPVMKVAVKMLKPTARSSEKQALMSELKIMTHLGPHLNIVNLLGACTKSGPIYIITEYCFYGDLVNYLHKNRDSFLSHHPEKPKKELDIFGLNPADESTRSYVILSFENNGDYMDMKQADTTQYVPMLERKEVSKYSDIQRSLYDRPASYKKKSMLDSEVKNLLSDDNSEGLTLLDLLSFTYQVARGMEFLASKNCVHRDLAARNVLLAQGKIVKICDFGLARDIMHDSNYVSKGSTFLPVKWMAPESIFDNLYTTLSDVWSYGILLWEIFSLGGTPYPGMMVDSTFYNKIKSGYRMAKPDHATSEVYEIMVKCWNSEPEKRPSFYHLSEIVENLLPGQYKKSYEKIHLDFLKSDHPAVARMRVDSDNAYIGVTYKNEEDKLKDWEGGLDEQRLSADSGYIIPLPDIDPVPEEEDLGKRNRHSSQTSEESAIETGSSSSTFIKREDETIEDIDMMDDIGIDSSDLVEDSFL
substance,measurement,setting,value
MMI-0300 (peptide),% activity at 100 µM,ASK1 (h) (human),80%
same,% activity at 100 µM,DCAMKL2 (h) (human),81%
same,% activity at 100 µM,DMPK (h) (human),59%
same,% activity at 100 µM,EGFR(T790M) (h) (human),100%
same,% activity at 100 µM,EphA5 (h) (human),18%
same,% activity at 100 µM,Hck (h) (human),72%
same,% activity at 100 µM,IRAK1 (h) (human),95%
same,% activity at 100 µM,LOK (h) (human),37%
same,% activity at 100 µM,[1],5%
same,% activity at 100 µM,PAK5 (h) (human),110%
same,% activity at 100 µM,PDGFRα (h) (human),65%
same,% activity at 100 µM,PKCγ (h) (human),89%
same,% activity at 100 µM,PKCθ (h) (human),88%
same,% activity at 100 µM,PKG1α (h) (human),64%
same,% activity at 100 µM,SAPK3 (h) (human),84%
same,% activity at 100 µM,STK33 (h) (human),45%
same,% activity at 100 µM,TrkA (h) (human),25%
same,% activity at 100 µM,ULK2 (h) (human),122%
same,% activity at 100 µM,cSRC (h) (human),26%

# — patent publication US20160136234A1
